Measured values: patent CN115124615A (SICHUAN YIAI TECH CO LTD, dated 2022)

B1: 纳米抗体N5 (VHH)
VHH: QVQLVESGGGPVQAGGSLRLSCAAAGSALSIYRMGWYRQAPGKQRELVAFITTGGSTDHIDSVKGRFTISRDNAKNTVYLQMNSLKPEDTAVYYCNSDPPWVLGADWGQGTQVTVSS
notes: also called R5
B2: 纳米抗体N1 (VHH)
VHH: QVQLVESGGGLVQPGGSLRLSCTASGSGFSNNNMAWYRQAPGKAREWVAAVSSSGNTNYAASAKGRFTISRDNAKNTVYLQMSSLKPEDTAVYYCYAVAPEGGDSWGQGTQVTVSS
notes: also called R1
B3: 纳米抗体N10 (VHH)
VHH: QVQLVESGGGLVEAGGSLRLSCAASGIIFSINNMAWYRQAPGKPREWVAAVSSSGNTNYAASVKGRFTISRDNAKNTLYLQMSSLKPEDTAVYYCYAVAPEGGDSWGQGTQVTVSS
notes: also called R10
B4: 纳米抗体N3 (VHH)
VHH: QVQLVESGGGLVQAGGSLRLSCRASGSVFTMGWHRQAPGNGREFVASITRDGNANYKGSVKDRFTISRDNGKNTLYLQMNSLKPEDTAVYYCIDYNTSTWGQGTQVTVSS
notes: also called R3
B5: 纳米抗体N22 (VHH)
VHH: QVQLVESGGGLVQAGGSLRLSCRASGTVFNMGWHRQAPGQQREFVASISHDGRTNYAGSVKGRFTISRDNTKNTLYLQMNSLKPEDTAVYYCIDYHTSLWGQGTQVTVSS
notes: also called R22

Molecular target: 新冠病毒刺突蛋白(S蛋白) (SARS-CoV-2, UniProt P0DTC2 14-1213)
Assay: cell-based or functional assay

Binder | 假病毒中和 IC50
B1 | 0.023 µg/mL

Molecular target: T1, SARS-CoV2病毒表面SPIKE蛋白的RBD结构域 (SARS-CoV-2, UniProt P0DTC2 319-541)
T1 construct: domain: RBD结构域
Assay: SPR (Biacore)

Binder | Kd
B1 | 5300 pM
B2 | 560 pM
B3 | 590 pM
B4 | 1400 pM
B5 | 190 pM
